Data on two molecules can be found in paper PMC6321344, “Evaluation of [^68Ga]Ga-DOTA-TCTP-1 for the Detection of Metalloproteinase 2/9 Expression in Mouse Atherosclerotic Plaques” (Molecules, 2018).

Series [1] is described as follows: in vivo. More on the design: species or system mouse. The note with it: both sexes, iv, 18 MBq, total radioactivity, Tracer uptake. The source says: (§1) Sixteen (eleven males, five females) low-density lipoprotein receptor deficient mice expressing only apolipoprotein B100 (LDLR^-/-ApoB^100/100, Jackson Laboratory, Bar Harbor, ME, USA, strain #003000) were used. Mice were kept on a Western-type diet for 4.4 months starting at the age of 3.5 months. Forty-two percent of their calorific intake consisted of fat and 0.2% cholesterol (TD 88137, Harlan Teklad, Harlan Laboratories, Madison, WI, USA). Nine C57BL/6N mice on a regular chow diet (five males, four females) were used as controls. The mean age and weight of the studied mice at the time of tracer injection were 8.2 ± 0.70 months and 38 ± 8.0 g for the LDLR^-/-ApoB^100/100 mice, and 3.9 ± 0.86 months and 31 ± 5.8 g for the controls. During the studies, mice were housed under standard conditions (light and humidity) with ad libitum access to water and food. The study protocol was approved by the National Animal Experiment Board in Finland and the Regional State Administrative Agency for Southern Finland, and carried out in compliance with the relevant European Union directives. The high-performance liquid chromatography (HPLC) system was a LaChrom instrument (Hitachi; Merck Darmstadt, Germany), including a pump L7100, an ultraviolet (UV) detector L-7400, an interface D-7000 and a computerized data acquisition and processing software. The reversed-phase HPLC column (μBondapak 10 μm C18, 7.8 × 300 mm, pore size 125 Å) was purchased from Waters Corporation, Milford, MA, USA. The online radioisotope detector (Radiomatic 150 TR, Flow Scintillation Analyzer) was from Packard, Meriden, CT, USA. The precursor compound DOTA-TCTP-1 (Figure 1) was obtained as a custom synthesis from Peptide Specialty Laboratories GmbH (Heidelberg, Germany).
(§2) Isoflurane anesthetized mice were intravenously (i.v.) injected with 18 ± 2.7 MBq (in 50–100 µL) of [^68Ga]Ga-DOTA-TCTP-1 via the tail vein. At 60 min after tracer injection, a blood sample was obtained by cardiac puncture and animals were killed by cervical dislocation. Various tissues were excised, weighed, and measured for radioactivity on a gamma counter (Triathler 3”, Hidex, Turku, Finland). Radioactivity values were normalized by the injected radioactivity dose decay with a delta time between injection and measurement, animal weight, and the weight of tissue. Results are expressed as the percentage of injected radioactivity dose per gram of tissue (%ID/g).

Series [2] in a line: in vivo. The note with it: both sexes, C57BL/6N, mouse, iv, 18 MBq, total radioactivity, Tracer uptake.
Text: as §1, §2

Series [3] is described as follows: in vivo. The note with it: LDLR^-/-ApoB^100/100, mouse, iv, 11 MBq, total radioactivity. The method, then:
A subset of mice (three atherosclerotic and three healthy controls) were imaged using a small-animal PET/computed tomography (CT) scanner (Inveon Multimodality; Siemens Medical Solutions, Knoxville, TN, USA). The mice were anesthetized using 1.5% isoflurane, and their temperature was maintained using a heating pad throughout the imaging. Mice were i.v. injected with 11 ± 0.86 MBq (in 50–100 µL) of [^68Ga]Ga-DOTA-TCTP-1 via the tail vein. PET data were acquired in a list-mode for 60 min, starting from the time of injection of [^68Ga]Ga-DOTA-TCTP-1. The images were reconstructed using an ordered-subset expectation maximization 2D algorithm with four iterations into 30 × 3 s, 9 × 10 s, 4 × 30 s, 5 × 60 s, and […] time frames. Immediately after the PET scan, 100 µL of intravascular iodinated contrast agent eXIATM160XL (Binitio Biomedical Inc., Ottawa, ON, Canada) was injected and high-resolution CT was acquired (80 kV, 500 μA). CT images were reconstructed using a Feldkamp-based algorithm, and images were analyzed using Carimas v.2.6 software (Turku PET Centre, Turku, Finland). ROIs were drawn in the aortic arch, blood pool (inside the LV cavity), and several relevant organs, according to the high-resolution CT image. Results are reported as the percentage of injected dose per gram (%ID/g) as a function of the time after injection, i.e., as time-activity curves.

Series [4] relates to MMP-2/9. The note with it: quoted with the dose of the commercial inhibitor; ref product number 444251, Merck KGaA; cited from earlier work.

Positions of bridges follow the written chain, without caps; N, C: chain ends. Residues, ends and D or L forms follow the SMILES beside them. *: point of attachment. X1 = O=C(O)CN1CCN(CC(=O)O)CCN(CC(=O)NCCOCCOCCN*)CCN(CC(=O)O)CC1

For orientation: tissue uptake means the percentage of the injected dose found per gram of tissue. As to `CC(C)C[C@@H]1NC(=O)[C@@H](NC(=O)[C@H](C)NC(=O)CN)CSSC[C@@H](C(=O)NCC(=O)NCCOCCOCCNC(=O)CN2CCN(CC(=O)O)CCN(CC(=O)O)CCN(CC(=O)O)CC2)NC(=O)CNC(=O)[C@H](CCCNC(=N)N)NC(=O)CNC(=O)[C@H](CO)NC(=O)[C@H](CCCNC(=N)N)NC1=O` [[^68Ga]Ga-DOTA-TCTP-1, metal not drawn] (H-GACLRSGRGCG-X1; disulfide 3-10), the tissue uptake at 1 h stood at 0.53 ± 0.37 %ID/g in series [1] (LDLR-/-ApoB100/100, mouse, Bone); 0.23 ± 0.083 %ID/g in series [1] (LDLR-/-ApoB100/100, mouse, Heart); 0.59 ± 0.22 %ID/g in series [1] (LDLR-/-ApoB100/100, mouse, Intestine); 8 ± 2.9 %ID/g in series [1] (LDLR-/-ApoB100/100, mouse, Kidneys); 1.8 ± 0.48 %ID/g in series [1] (LDLR-/-ApoB100/100, mouse, Liver); 0.43 ± 0.19 %ID/g in series [1] (LDLR^-/-ApoB^100/100, mouse, Aorta). Also, the tissue uptake at 1 h came to 1.3 ± 0.4 %ID/g in series [1] (LDLR^-/-ApoB^100/100, mouse, Blood); 2.8 ± 1.6 %ID/g in series [1] (LDLR^-/-ApoB^100/100, mouse, Lungs); 0.49 ± 0.15 %ID/g in series [1] (LDLR^-/-ApoB^100/100, mouse, Lymph node); 0.35 ± 0.17 %ID/g in series [1] (LDLR^-/-ApoB^100/100, mouse, Pancreas); 2.6 ± 1.4 %ID/g in series [1] (LDLR^-/-ApoB^100/100, mouse, Plasma); 0.38 ± 0.15 %ID/g in series [1] (LDLR^-/-ApoB^100/100, mouse, Salivary gland). For the same molecule, the tissue uptake at 1 h turned out to be 0.19 ± 0.077 %ID/g in series [1] (LDLR^-/-ApoB^100/100, mouse, Skeletal muscle); 1.9 ± 1.6 %ID/g in series [1] (LDLR^-/-ApoB^100/100, mouse, Spleen); 0.35 ± 0.29 %ID/g in series [1] (LDLR^-/-ApoB^100/100, mouse, Thymus); 0.17 ± 0.21 %ID/g in series [1] (LDLR^-/-ApoB^100/100, mouse, WAT (white adipose tissue)); 0.52 ± 0.25 %ID/g in series [2] (Aorta); 0.69 ± 0.21 %ID/g in series [2] (Blood). In addition, the tissue uptake at 1 h is 0.63 ± 0.5 %ID/g in series [2] (Bone); 0.16 ± 0.066 %ID/g in series [2] (Heart); 0.43 ± 0.18 %ID/g in series [2] (Intestine); 8.9 ± 3.6 %ID/g in series [2] (Kidneys); 3.2 ± 1.6 %ID/g in series [2] (Liver); 1.3 ± 0.74 %ID/g in series [2] (Lungs). Also, the tissue uptake at 1 h in series [2] (Lymph node) worked out at 0.48 ± 0.19 %ID/g; in series [2] (Pancreas), 0.17 ± 0.056 %ID/g; in series [2] (Plasma) it was 1.5 ± 1 %ID/g; in series [2] (Salivary gland), 0.23 ± 0.07 %ID/g; in series [2] (Skeletal muscle), 0.17 ± 0.13 %ID/g; in series [2] (Spleen), 1.7 ± 1.3 %ID/g. Moreover, the tissue uptake at 1 h came out at 0.23 ± 0.07 %ID/g in series [2] (Thymus); 0.17 ± 0.11 %ID/g in series [2] (WAT (white adipose tissue)); 0.81 ± 0.3 %ID/g in series [3] (Radioactivity in myocardium (PET/CT)); 0.77 ± 0.16 %ID/g in series [3] (Uptake in atherosclerotic aorta (PET/CT)); 1.1 ± 0.64 %ID/g in series [3] (Uptake in blood pool (PET/CT)); 4.7 ± 3.8 %ID/g in series [3] (Uptake in liver (PET/CT)).
In general, IC50 refers to the concentration needed to halve the response being measured. Turning to “H-Cys^1-Thr-Thr-His-Trp-Gly-Phe-Thr-Leu-Cys^10-OH (cyclic: 1→10) (disulfide) [MMP-2/9 inhibitor]”, in series [4], the half-maximal inhibitory concentration (IC50) was 10 µM.
